Laboratory results published in US9765332B2, “Oligonucleotides and methods for inhibiting or reducing bacterial biofilms” (INSERM (INSTITUT NATIONAL DE LA SANTE ET DE LA RECHERCHE …).
“Also recorded” adds a separate entry of the source.

Assays:
csgD mRNA215 = test: Ribosome toeprint assays; type: biochemical, Escherichia coli; conditions: RydC without Hfq (elevated amounts); Hfq without RydC (low amounts)
Description: (§1) After denaturation followed by renaturation at room temperature, annealing mixes containing 0.2 pmol csgD mRNA and 1 pmol of labelled primer were incubated for 15 min with or without various concentrations of RydC or Hfq. fMet-tRNA^fMet was then added for 5 min. Reverse transcription was started by adding 2 μL of AMV RT (NE Biolabs) and dNTPs for 15 min, then stopped by adding 10 μL of Buffer II (Ambion). The cDNAs and sequencing reactions were run on polyacrylamide gels, and signals detected using a PhosphorImager. Gel retardation assays are performed as previously described (4). 0.5 pmol of labelled RydC were incubated for 10 min at 37° C. with various concentrations (0-500 pmols) of unlabelled csgD mRNA215, csgD mRNAΔ5′UTR, or csgD mRNA100 in 1×TMN buffer (20 mM Tris-acetate pH 7.6, 100 mM sodium acetate, and 5 mM magnesium acetate). Samples were loaded onto a native 5% acrylamide gel and separated with 0.5×TBE at 4° C. Gels are dried and visualized (PhosphorImager).

csgD mRNA [1] = test: In vitro translation assays (PURESYSTEM); type: biochemical, Escherichia coli; conditions: csgD mRNA503; for effect of adding Hfq on the translation regulation by the RydC mutant: 2-fold molar excess of Hfq
Description: In vitro translation of CsgD mRNA503 (2.5 pmols) using [^35S]-methionine was carried out with a PURESYSTEM (Cosmo Bio) following the manufacturer's instructions and as described previously (13). After RNA denaturation for 2 min at 85° C., chilling 2 min on ice, then renaturation for 5 min at 37° C. in TMN 1× buffer, a pre-complex between RydC and 10 pmol of Hfq was performed during 10 minutes at 37° C. To form the complex with the csgD mRNA, we again incubated for 10 min at 37° C. then translation assays were initiated by adding [^35S]-methionine and the PURESYSTEM classic II. Each reaction was denatured in a 1× Laemmli buffer at 95° C. for 5 min, loaded onto a 16% Tris-glycine gel, and visualized on a PhosphorImager.

csgD mRNA [2] = test: Native gel retardation assays; type: binding, Escherichia coli
Source text: To generate the various csgD mRNA fragments as well as the sRNA's RydC, DNA templates containing a T7 promoter sequence were generated by PCR using the appropriate primers (Table S2) followed by in vitro transcription using a MEGAscript kit (Ambion) per the manufacturer's protocol. Transcription products were then electrophoresed onto a 6% PAGE containing 8M urea, excised from the gel, then […]. When necessary, purified RNA was dephosphorylated using CIP (New England Biolabs), 5′end-labelled with ATP γ-^32P (PerkinElmer) and T4 polynucleotide kinase (NE Biolabs), then treated with gel purification, passive elution, and ethanol precipitation.
as §1

E. coli [3] = test: E. coli biofilm formation in the presence of PNAs; type: cell-based; conditions: 20 μM of PNAs
Description: The inventors used peptide nucleic acids (PNAs) that hybridize to the CsgD mRNA sequence ranging from nucleic acid at position 128 to nucleic acid at position 151 in SEQ ID NO: 9. In the presence of 20 μM of PNAs corresponding to RydC 1-2tot sequence (SEQ ID NO: 10), E. coli biofilm formation was reduced about 50%.

E. coli [4] = test: E. coli growth in the presence of PNAs; type: cell-based
Hfq = Hfq (Escherichia coli, UniProt P0A6X3 P0A6X3:2-102); test: EMSA; Hfq binds csgD mRNA215 in absence of RydC; no Kd given; conditions: tags: His tag implied by Ni2+ column purification, expressed from pTE607 in BL21(DE3); chain copies: 6; nine helices H1-H9
CsgB protein = test: Western blot with anti-CsgB antibodies during curli formation; type: cell-based, Escherichia coli; conditions: promoted RydC expression; after 48 h
Source text: (§2) Membranes were blocked in TBS containing 5% milk.

CsgA protein = conditions: stimulated RydC expression; YESCA plates, 0-48 hours
Description: E. coli K-12 MG1655Z1, S. sonnei and S. enterica strains and their derivatives were used (Table S1). RydC gene disruption and overexpression in E. coli cells were done as previously described (4). The biofilm assays were performed in 96-well polystyrene plates, as previously described (18). E. coli, S. enterica, and S. sonnei cells were grown aerobically under static conditions at 28° C. in half-diluted M9 media supplemented with a 0.4% glucose carbon source. After 48 h growth, planktonic cells were discarded and kept for growth evaluation at OD600 nm. Each well was washed twice with PBS and put into a ‘swimming pool’, pooled with the initial supernatant. Biofilm was developed in plates then dyed with crystal violet for 15 min at room temperature. The biofilm was recovered through application of an 80% absolute ethanol and 20% acetone solution and by pipetting up and down. After 2 further washes in ‘ethanol/acetone’, the number of surface-attached bacteria was estimated from the optical density at 590 nm and divided by the evaluation of growth at 600 nm. Curli expression was monitored for 48 h at 28° C. on Congo red plates (1% Casamino acids, 0.1% yeast extract, 20 μg ml^−1 Congo red and 10 μg ml^−1 Coomassie Brilliant Blue G). […]

CsgD protein = test: Western blot with anti-CsgD antibodies during curli formation; type: cell-based, Escherichia coli; conditions: induction of RydC expression; all times during curli synthesis
Source text: as §2

Escherichia coli [5] = test: Microtiter dish biofilm assay (crystal violet), RydC expression from pUC18-rydC; type: cell-based; conditions: increased RydC expression (pUC18-rydC) vs isogenic strain; 48 hours incubation at 28° C.
csgBA and csgA mRNA = test: Northern blot of csgA and csgBA mRNAs during curli formation; type: cell-based, Escherichia coli; conditions: high levels of RydC; after 10 h incubation
csgD mRNA [6] = test: Northern blot of csgD mRNA during curli formation; type: cell-based, Escherichia coli; conditions: induced RydC expression; throughout curli synthesis
[7] = system: Salmonella enterica (bongori); test: Microtiter dish biofilm assay (crystal violet), RydC expression from pUC18-rydC; type: cell-based; conditions: increased RydC expression (pUC18-rydC) vs isogenic strain; 48 hours incubation at 28° C.
Escherichia coli [8] = test: Curli formation on Congo red plates; type: cell-based; conditions: stimulated RydC expression, 48 hours at 28° C.
[9] = system: Salmonella enterica (bongori); test: Curli formation on Congo red plates; type: cell-based; conditions: stimulated RydC expression, 48 hours at 28° C.

Chain of Hfq (P0A6X3 2-102, one chain of several): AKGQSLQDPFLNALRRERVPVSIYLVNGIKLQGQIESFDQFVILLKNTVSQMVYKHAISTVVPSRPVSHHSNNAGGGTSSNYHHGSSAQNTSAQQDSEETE

Molecule: Hfq: purified E. coli Hfq RNA-binding protein (RNA chaperone)
- ribosome loading / translation initiation on csgD mRNA215 (toeprint) (csgD mRNA215): prevent csgD mRNA translation initiation
- CsgD translation remaining (down to) (csgD mRNA [1]; relative to translation without RydC and Hfq): 40%
- interaction of Hfq with csgD mRNA215 (csgD mRNA [2]; absence of RydC): interacts

Molecule: AACATGATGAAACCCCGC (all peptide nucleic acid (PNA)) [RydC 1-2tot]
- reduction of E. coli biofilm formation (E. coli [3]): about 50%
- effect on bacterial growth (E. coli [4]): reducing E. coli growth

B1: csgD mRNA215 (ssRNA)
RNA: GAUGUAAUCCAUUAGUUUUAUAUUUUACCCAUUUAGGGCUGAUUUAUUACUACACACAGCAGUGCAACAUCUGUCAGUACUUCUGGUGCUUCUAUUUUAGAGGCAGCUGUCAGGUGUGCGAUCAAUAAAAAAAGCGGGGUUUCAUCAUGUUUAAUGAAGUCCAUAGUAUUCAUGGUCAUACAUUAUUGUUGAUCACUAAAUCUUCUUUGCAGGCG
- binding result (Hfq): binds

B2: Escherichia coli RydC H2 (nucleic acid)
chain: CUUCCGAUGUACUGGGCAAUUCUUCGCCUGUACCACGGGUCGGUUUUAGUACAGGCGUUUUCUU
modifications: chemistry not given here
- effect of adding Hfq on the translation regulation by the RydC mutant (csgD mRNA [1]): not beneficial

B3: Escherichia coli RydC H1 (nucleic acid)
chain: CUUCCGAUGUAGACCCGUAUUCUUCGCCUGUACCUGCCCAGGGUUUUAGUACAGGCGUUUUCUU
modifications: chemistry not given here
- effect on CsgD translation (csgD mRNA [1]; absence of Hfq): increased efficacy and translation blockage

B4: Escherichia coli RydC H3 (nucleic acid)
chain: CUUCCGAUGUACUGGGCAAUUCUUCGCCUGUACCUGCCCAGGGUUUUAGUACAGGCGUUUUCUU
modifications: chemistry not given here
- activity for reducing CsgD translation relative to RydCH1 (csgD mRNA [1]): ten-fold
- activity in reducing csgD mRNA translation relative to RydC (csgD mRNA [1]): only half as active as RydC
- effect of adding Hfq on the translation regulation by the RydC mutant (csgD mRNA [1]): no effect

B5: Escherichia coli RydC small RNA (nucleic acid, listed as Escherichia coli)
chain: CUUCCGAUGUAGACCCGUAUUCUUCGCCUGUACCACGGGUCGGUUUUAGUACAGGCGUUUUCU
modifications: expressed or natural sequence
notes: trans-encoded 64 nt sRNA of enteric bacteria folding as a pseudoknot; expressed from pUC18-rydC or transcribed in vitro
- reduction of CsgB nucleator protein compared to isogenic strain (CsgB protein): about two-fold
- reduction of the quantity of CsgA structural protein compared to wt (CsgA protein): up to 2.5 times
- reduction of CsgD protein compared to isogenic strain (CsgD protein): up to five-fold
- reduction of biofilm formation (Escherichia coli [5]): about one-third
- ribosome loading / translation initiation on csgD mRNA215 (toeprint) (csgD mRNA215): reduced ribosome loading onto the csgD mRNA in a concentration-dependent manner
- reduction of CsgD translation (csgD mRNA [1]; without Hfq): 20%
- complex formation with csgD mRNA100 (csgD mRNA [2]; 31 nts of 5′UTR including TIS plus 69 nts coding sequence): duplex was detected; also recorded: lower than that with mRNA215
- ternary complex formation RydC-Hfq-csgD mRNA215 (csgD mRNA [2]; Hfq 1:1 molar ratio to RydC, one-to-one molar ratio with csgD mRNA215): nearly all of the RydC is in the complex
- molar excess of csgD mRNA215 versus RydC needed for about half of RydC in complex (csgD mRNA [2]; absence of Hfq): 1000 -fold molar excess
- complex formation with csgD mRNA115 (csgD mRNA [2]; first 115 nts of the csgD mRNA 5′-end, up to 250-fold excess): unable to interact; also recorded: did not interact
- complex formation with csgD mRNAΔ5′UTR (csgD mRNA [2]; mRNA lacking the 5′-UTR, starting at G+3): does not interact
- complex formation with csgD mRNA215 (csgD mRNA [2]; no Hfq): duplex was detected
- decrease of steady state levels of csgBA and csgA mRNA transcripts (csgBA and csgA mRNA): half
- csgD mRNA steady state levels compared to isogenic strain (csgD mRNA [6]): half
- reduction of biofilm formation [7]: one-half
- curli formation (Escherichia coli [8]): lowered curli formation
- curli formation [9]: lowered curli formation
